In the supplement of paper PMC9732359 one finds protein stability index data, which are given here for 38 sequences.

± gives the uncertainty stated by the source.

This series can be described thus: protein stability index of a GFP-peptide fusion (yeast GPS) (PSI 1-4); higher = more stable; sorted into four equal gates, so the index is relative within each strain. Summed up:
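For each peptide, the protein stability index sums the read frequency in every gate after multiplying it by the gate number. Read frequencies came from plasmids that were PCR-amplified from each gate and Illumina-sequenced, with reads assigned to strains by barcodes. The gates were four equal bins of GFP/Cherry fluorescence ratio applied to mid-log yeast in leucine-free medium carrying a pooled library of tiled 17-residue yeast protein peptides fused downstream of GFP on a Cherry-expressing plasmid.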

As for RNEQVTIELKNGTTVWG [SMD1], the protein stability index runs as follows: (doa10∆) 1.23 ± 0.099; (pdr5∆) 1.78 ± 0.11; (san1∆) 1.49 ± 0.24; (ubr1∆) 1.16 ± 0.094.

Consider LAKILARSIDVEKGVNP [ECM29], for which the protein stability index came out at 1.21 ± 0.09 (doa10∆), 1.21 ± 0.062 (pdr5∆), 1.4 ± 0.17 (san1∆) and 1.07 ± 0.071 (ubr1∆).

On to RQLQYETLGDILKRDFE [ECM29], for which the protein stability index stood at 2.92 ± 0.075 (doa10∆), 3.36 ± 0.099 (pdr5∆), 2.76 ± 0.095 (san1∆) and 3.02 ± 0.087 (ubr1∆).

With EMKTQAAELQEKPLTPL [SNF6], the protein stability index came out at 2.97 ± 0.19 (doa10∆), 3.14 ± 0.12 (pdr5∆), 2.8 ± 0.088 (san1∆) and 2.89 ± 0.087 (ubr1∆).

Regarding VMGTPLTNMMSPMGNAY [PGD1], the protein stability index runs as follows: (doa10∆) 2.03 ± 0.14; (pdr5∆) 2.24 ± 0.21; (san1∆) 1.62 ± 0.18.

RQINKLIDSLPGVDVSA [SRB7] showed a protein stability index (doa10∆) of 2.43 ± 0.056, a protein stability index (pdr5∆) of 2.06 ± 0.05, a protein stability index (san1∆) of 1.6 ± 0.077 and a protein stability index (ubr1∆) of 1.9 ± 0.038.

In the case of TFAKSKNYSRPSTAIHT [SIR4], the protein stability index (doa10∆) was found to be 2.03 ± 0.099, the protein stability index (pdr5∆) was determined as 1.79 ± 0.066, the protein stability index (san1∆) was found to be 1.53 ± 0.1 and the protein stability index (ubr1∆) came to 2.15 ± 0.05.

Sequence RPPVKAILQEKILSILN [ECM29] displayed a protein stability index (doa10∆) of 1.46 ± 0.058, a protein stability index (pdr5∆) of 1.83 ± 0.084, a protein stability index (san1∆) of 1.71 ± 0.14 and a protein stability index (ubr1∆) of 2 ± 0.11.

As to YMRLWEINETEFIRCGC [RMP1], the protein stability index reads like this: (doa10∆) 3.31 ± 0.13; (pdr5∆) 3.46 ± 0.14; (san1∆) 3.55 ± 0.13; (ubr1∆) 3.33 ± 0.049.

For the sequence YIRVNHADKDTFSSSIS [POP8], the protein stability index came out at 2.76 ± 0.049 (doa10∆), 2.61 ± 0.052 (pdr5∆), 2.52 ± 0.053 (san1∆) and 2.18 ± 0.037 (ubr1∆).

For the sequence SFRIKQKMAKAKKQNRP [RPL39], the protein stability index reads like this: (doa10∆) 2.47 ± 0.17; (pdr5∆) 2.78 ± 0.097; (san1∆) 2.93 ± 0.091; (ubr1∆) 2.93 ± 0.092.

NERRKDLAERASELDES [SMC3] yielded a protein stability index (doa10∆) of 2.13 ± 0.058, a protein stability index (pdr5∆) of 2.79 ± 0.06, a protein stability index (san1∆) of 1.98 ± 0.11 and a protein stability index (ubr1∆) of 2.97 ± 0.054.

On to AISTGAKIDVMLTIARL [RPN7], for which the protein stability index was found to be 3.31 ± 0.16 (doa10∆), 3.23 ± 0.099 (pdr5∆), 3.33 ± 0.054 (san1∆) and 3.38 ± 0.075 (ubr1∆).

As to KPWFATVNGQARDLATM [FAS1], the protein stability index is, setting by setting: (doa10∆) 3.01 ± 0.11; (pdr5∆) 3.08 ± 0.1; (san1∆) 3 ± 0.083; (ubr1∆) 3.05 ± 0.064.

With VEQGYEDAFNFWFDKLV [YCG1], the protein stability index by setting is: (doa10∆) 3.05 ± 0.12; (pdr5∆) 2.66 ± 0.14; (san1∆) 3.38 ± 0.1; (ubr1∆) 2.38 ± 0.2.

As to ADVKGVCTEAGMYALRE [RPT6], the protein stability index (doa10∆) is 1.82 ± 0.08, the protein stability index (pdr5∆) came to 2.23 ± 0.094, the protein stability index (san1∆) was found to be 1.97 ± 0.12 and the protein stability index (ubr1∆) stood at 1.27 ± 0.27.

As to GEKNFTSAHLKLKEMQK [SMC4], the protein stability index was 3.01 ± 0.14 (doa10∆), 3.35 ± 0.12 (pdr5∆), 3.27 ± 0.078 (san1∆) and 3.14 ± 0.24 (ubr1∆).

Consider ELDEHTTQIDLFRIFSM [BRR2], for which the protein stability index is 2.25 ± 0.1 (doa10∆), 1.56 ± 0.1 (pdr5∆), 1.61 ± 0.15 (san1∆) and 1.22 ± 0.059 (ubr1∆).

As for TAELIKELKEKEAAESP [PUP2], the protein stability index by setting is: (doa10∆) 2.79 ± 0.058; (pdr5∆) 3.3 ± 0.094; (san1∆) 3.21 ± 0.12; (ubr1∆) 3.22 ± 0.074.

In the case of VKQLENVSSNIVKNAEQ [RPS20], the protein stability index was 2.58 ± 0.092 (doa10∆), 2.84 ± 0.081 (pdr5∆), 3.15 ± 0.049 (san1∆) and 2.86 ± 0.056 (ubr1∆).

In the case of GSQKTFEIDDEHRIRVF [RPS6A], the protein stability index reads like this: (doa10∆) 1.75 ± 0.089; (pdr5∆) 2.76 ± 0.14; (san1∆) 1.97 ± 0.16; (ubr1∆) 2.5 ± 0.21.

As for ARIALRHLEKEGIIKPI [RPS25A], the protein stability index reads like this: (doa10∆) 2.98 ± 0.092; (pdr5∆) 3.37 ± 0.16; (san1∆) 3.06 ± 0.094; (ubr1∆) 3.12 ± 0.085.

QDGVLLVALSNEPAARL [FAS2]: the protein stability index stood at 1.89 ± 0.063 (doa10∆), 1.9 ± 0.06 (pdr5∆), 2.68 ± 0.09 (san1∆) and 1.46 ± 0.071 (ubr1∆).

As to TDLENSSLFQEKLLETN [ECM29], the protein stability index was 2.52 ± 0.096 (doa10∆), 2.46 ± 0.079 (pdr5∆), 2.49 ± 0.056 (san1∆) and 2.68 ± 0.057 (ubr1∆).

ILINTARIHAQNYLKTY [PRE9]: the protein stability index stood at 2.01 ± 0.085 (doa10∆), 1.78 ± 0.073 (pdr5∆), 2.55 ± 0.17 (san1∆) and 1.89 ± 0.06 (ubr1∆).

In turn, KTLVALEKQEDYIDNLV [RPC37] came in with a protein stability index (doa10∆) of 3.23 ± 0.11, a protein stability index (pdr5∆) of 2.97 ± 0.14, a protein stability index (san1∆) of 2.97 ± 0.16 and a protein stability index (ubr1∆) of 3.07 ± 0.11.

Turning to ESFKGLQPFWFRVNNAS [ECM29], the protein stability index was 2.05 ± 0.13 (doa10∆), 1.92 ± 0.11 (pdr5∆) and 2.09 ± 0.15 (ubr1∆).

Take DDRYGYQLYTSNPSGNY [PRE9]: the protein stability index is, setting by setting: (doa10∆) 2.88 ± 0.073; (pdr5∆) 2.97 ± 0.081; (san1∆) 3.06 ± 0.065; (ubr1∆) 3.1 ± 0.05.

SDNSEEEEVDIDMDKLN [RRP43]: the protein stability index was 3.25 ± 0.069 (doa10∆), 3.25 ± 0.071 (pdr5∆), 3.4 ± 0.077 (san1∆) and 3.11 ± 0.05 (ubr1∆).

Take IWNDVVYGEGTSRVTGI [YJL039C/NUP192]: the protein stability index (doa10∆) turned out to be 3.35 ± 0.15, the protein stability index (pdr5∆) is 3.4 ± 0.17 and the protein stability index (ubr1∆) is 3.45 ± 0.091.

As to ATGNESQDATKVDATPE [YLR335W/NUP2], the protein stability index was determined as 2.87 ± 0.086 (doa10∆), 3.22 ± 0.082 (pdr5∆), 3.04 ± 0.066 (san1∆) and 2.94 ± 0.099 (ubr1∆).

KFMELERKTLERQQENL [SWI3]: the protein stability index reads like this: (doa10∆) 2.76 ± 0.17; (pdr5∆) 3.23 ± 0.1; (san1∆) 3.06 ± 0.09; (ubr1∆) 3.12 ± 0.071.

In the case of TKSSKEFFNTLRKSRET [RRI2], the protein stability index turned out to be 2.63 ± 0.15 (doa10∆), 3.42 ± 0.13 (pdr5∆), 3.06 ± 0.074 (san1∆) and 2.92 ± 0.11 (ubr1∆).

Turning to DFSARTVISGDPNLELD [RPO21], the protein stability index came out at 3.29 ± 0.22 (doa10∆), 2.79 ± 0.21 (pdr5∆), 2.58 ± 0.15 (san1∆) and 2.47 ± 0.13 (ubr1∆).

For APIQLKIDLLSGQFYFR [RGR1], the protein stability index is 2.63 ± 0.14 (doa10∆), 2.86 ± 0.16 (pdr5∆), 2.15 ± 0.23 (san1∆) and 3.02 ± 0.082 (ubr1∆).

Consider SQLAKWKTAEEVSALVR [PRP8], for which the protein stability index (doa10∆) was determined as 1.26 ± 0.17.

As for NKLNFIVDDKQEMIDIL [DIB1], the protein stability index was 3.37 ± 0.099 (doa10∆), 3.01 ± 0.17 (pdr5∆), 2.9 ± 0.15 (san1∆) and 3 ± 0.12 (ubr1∆).

SSYDLLFNESFIMASVG [SRP72]: the protein stability index reads like this: (doa10∆) 3.18 ± 0.12; (pdr5∆) 2.88 ± 0.15; (san1∆) 2.76 ± 0.1; (ubr1∆) 3.16 ± 0.059.
